From US20250382344A1, “Soluble GLP1/GIP/NPY2 Receptor Triple Agonists” (Boehringer Ingelheim International GmH, priority 2024, published 2025)
*1 amine or outer side, *2 acyl side, *3 side chain or, on linkers, in order; H or OH if unused. Where no end group is shown, it is not given here. Side-chain parts run from the residue outwards. [ ]: non-standard residue; d: D form. The star is where a group is joined. C20 diacid = O=C(O)CCCCCCCCCCCCCCCCCCC(=O)*; C18 diacid = O=C(O)CCCCCCCCCCCCCCCCC(=O)*; γGlu = O=C(O)[C@H](CCC(=O)[*:2])N[*:1]; εLys = N[C@@H](CCCCN[*:1])C(=O)[*:2]; Aib = CC(C)(N)C(=O)O

T1: human neuropeptide Y2 receptor (human, UniProt P49146 1-381)
T1 sequence (looked up): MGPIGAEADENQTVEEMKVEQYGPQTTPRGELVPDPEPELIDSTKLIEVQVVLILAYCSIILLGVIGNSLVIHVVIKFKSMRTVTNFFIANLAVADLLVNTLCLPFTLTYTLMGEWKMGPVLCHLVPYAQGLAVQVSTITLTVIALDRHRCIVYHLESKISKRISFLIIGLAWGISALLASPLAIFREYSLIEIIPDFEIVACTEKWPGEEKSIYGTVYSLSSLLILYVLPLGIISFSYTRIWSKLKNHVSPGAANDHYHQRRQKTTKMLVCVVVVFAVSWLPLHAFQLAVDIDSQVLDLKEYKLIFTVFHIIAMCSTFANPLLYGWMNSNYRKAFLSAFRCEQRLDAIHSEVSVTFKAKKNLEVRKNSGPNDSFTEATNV


How the values were obtained:
[1] = target: T1, human neuropeptide Y2 receptor; experiment: cell-based or functional assay
human GLP-1 receptor = human GLP-1 receptor (human, UniProt P43220 24-463); experiment: cell-based or functional assay

Binder	EC50, CreLuc reporter, 0.5% hP [1] [nM]	EC50, CreLuc reporter, 100% hP [1] [nM]	EC50, CreLuc reporter, 0.5% hP (human GLP-1 receptor) [nM]	EC50, CreLuc reporter, 100% hP (human GLP-1 receptor) [nM]
Y[Aib]EGTFTSDYSI[Aib]LEEEAQ[Aib]AFVRHLINK([γGlu-γGlu-γGlu-γGlu-C18 diacid])[Aib]TRQRY-NH2 [Compound 25]	89.2	437	0.7	2
Y[Aib]EGTFTSDYSIALEKQAQ[Aib]AFVRHLINK([γGlu-γGlu-γGlu-γGlu-γGlu-γGlu-C20 diacid])[Aib]TRQRY-NH2 [Compound 29]	41.3	180	5.5	33
YXEGTFTSDYSIXLEQQAQXAFVRHLINKXTRQRY (Aib at 2, 13, 20, 30; Lys29 epsilon-amino acylated with C18DA-gGlu-gGlu-gGlu-gGlu-gGlu; C-terminal amide) [Compound 42]	81.4	704	0.9	14.5
Y[Aib]EGTFTSDYSI[Aib]LEEQAQ[Aib]AFVRHLINK([εLys-γGlu-γGlu-γGlu-γGlu-γGlu-C18 diacid])[Aib]TRQRY-NH2 [Compound 48]	11.6	77.2	0.5	
Y[Aib]EGTFTSDYSI[Aib]LEKQAQ[Aib]AFVRHLINK([γGlu-γGlu-εLys-γGlu-γGlu-γGlu-γGlu-C20 diacid])[Aib]TRQRY-NH2 [Compound 52]		152	3.3	
YXEGEFTSDYSIXLEKQAQXAFVRHLINKXTRQRY (Aib at 2, 13, 20, 30; Lys29 epsilon-amino acylated with C18DA-gGlu-gGlu-gGlu-gGlu-gGlu-gGlu-eLys; C-terminal amide) [Compound 54]		38.3	3.4	14.4
YXEGTFTSDYSIXLEKQAQXAFVRHLINKXTRQRY (Aib at 2, 13, 20, 30; ArgMe at 34; Lys29 epsilon-amino acylated with C18DA-gGlu-gGlu-gGlu-gGlu-gGlu-gGlu-eLys; C-terminal amide) [Compound 72]			0.6	
